Experimental data taken from patent US20250361311A1 (published 2025).

T1: human scTL1A (human, UniProt O95150 72-251, biotinylated (captured with the Biotin CAPture kit); site not stated)
T1 chain: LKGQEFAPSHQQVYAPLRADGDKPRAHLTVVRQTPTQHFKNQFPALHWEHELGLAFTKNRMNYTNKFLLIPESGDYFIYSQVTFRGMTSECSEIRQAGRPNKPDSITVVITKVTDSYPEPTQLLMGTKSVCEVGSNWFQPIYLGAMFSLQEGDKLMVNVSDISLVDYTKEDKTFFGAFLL

T2: recombinant TL1A (UniProt O95150 72-251)
T2 chain: T1 chain

B1: scTL1A (ligand)
chain: T1 chain
modifications: biotinylated (captured with the Biotin CAPture kit); site not stated
B2: 70416_041[TL1A]H1L1 Fab (Fab, V domains shown)
VH: QVQLVQSGAEVKKPGASVKVSCKVSGFSVTSYNVHWVRQAPGQGLEWMGVMWSGGNTDYNSKFQGRVTMTRDTSTNTVYMELSSLRSEDTAVYYCARAGRYYHDSNYYWDFPYWGQGTLVTVSS
VL: DIQMTQSPSSVSASVGDRVTITCRASEDIYSGLAWYQQKPGKSPKLLIYGASSLQDGVPSRFSGSGSGTDYTLTISSLQPEDFATYFCQEGLKSPYTFGAGTKLEIK

Key:
70392_074[TL1A]H1L1 = test: SPR; monovalent Fab
70417_111[TL1A]H1L1 = test: SPR; monovalent Fab
70392_189[TL1A]H1L1 = test: SPR; monovalent Fab
Comparator 2 = test: SPR; monovalent Fab
70416_092[TL1A]H1L1 = test: SPR; monovalent Fab
70392_201[TL1A]H1L1 = test: SPR; monovalent Fab
70392_069[TL1A]H1L1 = test: SPR; monovalent Fab
70416_073[TL1A]H1L1 = test: SPR; monovalent Fab
human scTL1A = biological target: T1, human scTL1A; test: SPR; monovalent Fab
recombinant TL1A = biological target: T2, recombinant TL1A; test: SPR; run in different experiment under similar conditions

Binder | Kd (70392_074[TL1A]H1L1) [nM] | Kd (70417_111[TL1A]H1L1) [nM] | Kd (70392_189[TL1A]H1L1) [nM] | Kd (Comparator 2) [nM] | Kd (70416_092[TL1A]H1L1) [nM] | Kd (70392_201[TL1A]H1L1) [nM] | Kd (70392_069[TL1A]H1L1) [nM] | Kd (70416_073[TL1A]H1L1) [nM] | Kd (human scTL1A) [nM] | Kd (recombinant TL1A) [nM]
B1 | 6.11 | 6.84 | 0.895 | 0.0708 | 3.12 | 0.128 | 1.69 | 6.61 | – | –
B2 | – | – | – | – | – | – | – | – | 0.104 | 0.104
